From patent US20250188151A1, “C-JUN ANTAGONIST PEPTIDES” (The University of Bath, priority 2022, published 2025)

Key:
[1] = target: T1, cJun bZIP (human, UniProt P05412 252-308, limits assumed); test: ITC
T1 construct: Purified from a His-SUMO fusion with the tag cleaved off; also called c-Jun bZIP domain; 60 amino acid c-Jun bZIP construct
T1 chain: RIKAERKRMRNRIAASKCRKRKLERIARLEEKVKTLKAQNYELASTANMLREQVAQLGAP

[2] = target: T1, cJun bZIP; test: CD spectra at 20 °C
[3] = target: T1, cJun bZIP; test: cell-based or functional assay
[4] = Serum stability (LC-MS); format: in vitro ADME; conditions: human serum, 37° C.
Protocol: Serum Stability: Peptide stocks (600 μM) were prepared in water and 50 μL added to 950 μL human serum (Merck) before incubation at 37° C. […] The supernatant was analysed by LC-MS and quantified using the sum of the two largest charge state intensities (1: 9+, 10+; 23,24: 3+, 4+).

[5] = tested on: TRE DNA; test: CD control: peptide with TRE DNA; format: binding
Protocol: Circular Dichroism (CD): An Applied Photophysics Chirascan was used for CD measurements, with a 200 μL sample in a 1 mm path length CD cell. Protein/DNA samples were suspended in 150 mM potassium phosphate, 150 mM potassium fluoride and 5 mM TCEP at pH 7.4 and were equilibrated for 30 minutes before measurement. […] These scans were averaged and converted to molar residue ellipticities (MRE).

[6] = target: T1, cJun bZIP
[7] = target: T1, cJun bZIP
[8] = target: T1, cJun bZIP
[9] = target: T1, cJun bZIP; test: ITC (PEAQ-ITC), peptide injected into cJun, one site model
[10] = target: cJun bZIP (Homo sapiens, UniProt P05412, S292Y); test: CD spectra and thermal denaturation of peptide/cJun heterodimers
[11] = CD spectra and thermal denaturation of peptide-only samples (helicity, homodimer Tm); conditions: peptide alone
Protocol: Circular Dichroism (CD): An Applied Photophysics Chirascan was used for CD measurements, with a 200 μL sample in a 1 mm path length CD cell. Protein/DNA samples were suspended in 150 mM potassium phosphate, 150 mM potassium fluoride and 5 mM TCEP at pH 7.4 and were equilibrated for 30 minutes before measurement. […] These scans were averaged and converted to molar residue ellipticities (MRE). Thermal denaturation experiments were performed by measuring the ellipticity at 222 nm over a 1 to 90° C. gradient at 1° C. increments. Post-melt scans at 20° C. confirmed the transitions were reversible as they overlaid within 10% of the pre-melt scan.
Circular Dichroism (CD): An Applied Photophysics Chirascan was used for CD measurements, with a 200 μL sample in a 1 mm path length CD cell. Protein/DNA samples were suspended in 150 mM potassium phosphate, 150 mM potassium fluoride and 5 mM TCEP at pH 7.4 and were equilibrated for 30minutes before measurement. […] Thermal denaturation experiments were performed by measuring the ellipticity at 222 nm over a 1 to 90° C. gradient at 1° C. increments. Post-melt scans at 20° C. confirmed the transitions were reversible as they overlaid within 10% of the pre-melt scan.
Peptide helicity was determined by quantifying the CD signal at 222 nm of peptide only samples. Thermal denaturation experiments were then used to determine the Tm of peptide-c-Jun heterodimers, which was used as an approximate measure of target engagement. […] The same 60 amino acid c-Jun bZIP construct was used for all experiments, regardless of antagonist peptide length.

[12] = target: cJun (Homo sapiens, UniProt P05412, S292Y); test: Isothermal titration calorimetry, Example 1 (MicroCal VP-ITC); format: binding; set-up: The same 60 amino acid c-Jun bZIP construct was used for all experiments; His-SUMO (N, cleaved yes); made in house; host or cells: E. coli; conditions: peptide 10 μM injected into cJun 1 μM, single site model; listed as HingeW
Protocol: Using a MicroCal VP-ITC instrument (Malvern), 10 μL injections of antagonist peptide (HingeW or A-FosW) at 10 μM were injected into the cell containing cJun at 1 μM. MicroCal Origin software was used to record and analyse the heat change upon addition. Control experiments involved the injection of the antagonist peptide sample into the cell containing ITC buffer alone to determine the heat of dilution which was subtracted. The resulting binding data were fit to a one site binding model to extract the enthalpy change of binding (ΔH) and the equilibrium binding constant (KD), from which the free energy change of binding (ΔG) and the entropy change of binding (AS) was calculated (Wiseman et al., 1989). Thermodynamic parameters are presented as an average of two independent experiments with errors given as one standard deviation.

B1: HingeW (peptide)
peptide: MASLEQRAEELARENEELEKEAEELVVEEDVLEEEIEQLEERNYALRKEIEDLQKQLEKLGAPHHHHHH
notes: Recombinant, capped (MAS at the N-terminus, GAP at the C-terminus) and C-terminally 6xHis-tagged, 69 amino acids; also called peptide 1
- fold increase in binding affinity against A-FosW [1]: 6 fold
- increase in α-helical content relative to the average of the two component spectra [2]: 82%
- IC50 CD [3]: 13.4 µM
- peak intensities relative to starting values ([4]; after 96 hours): no peaks corresponding to 1 are observed
- degraded ([4]; at 24 hours): 67%
- half-life ([4]; exponential decay fit): 18.9 h
- interaction with TRE DNA [5]: no interaction
- increase in heterodimer Tm against A-FosW/cJun [6]: 1.3 ° C.
- Tm (° C.) (CD) [7]: 71.2 ° C.
- ΔTm from component average (CD) [8]: ~40 ° C.
- -TΔS [9]: 17.6 kcal/mol
- Stoichiometry, n [9]: 0.93
- ΔG [9]: -13.4 kcal/mol
- ΔH [9]: -31 kcal/mol
- increase in heterodimer Tm relative to A-FosW/cJun [10]: 1.3 °C
- Fraction helicity at 20° C. (CD) ([10]; heterodimer with c-Jun, equimolar, 10 μM total): 34.7%
- Tm (° C.) (CD) ([10]; heterodimer with cJun bZIP, Example 1, listed as HingeW): 71.2 °C
- ΔTm from component average (CD) ([10]; heterodimer with cJun vs average of component profiles, listed as HingeW): ~40 °C
- Fraction helicity at 20° C. (CD) [11]: 27.2%
- helicity in isolation, less helical relative to A-FosW [11]: 12.9%
- Kd [12]: 14 nM
